{"source": "paper PMC9402439", "about": "“Reconstitution of a telomeric replicon organized by CST”", "biological_target": "Polα-primase, recombinant (Insect PP) (Homo sapiens, UniProt P09884;Q14181;P49642;P49643 1-1462;1-598;1-420;1-509)", "sequence (P09884 whole entry, chain 1 of 4)": "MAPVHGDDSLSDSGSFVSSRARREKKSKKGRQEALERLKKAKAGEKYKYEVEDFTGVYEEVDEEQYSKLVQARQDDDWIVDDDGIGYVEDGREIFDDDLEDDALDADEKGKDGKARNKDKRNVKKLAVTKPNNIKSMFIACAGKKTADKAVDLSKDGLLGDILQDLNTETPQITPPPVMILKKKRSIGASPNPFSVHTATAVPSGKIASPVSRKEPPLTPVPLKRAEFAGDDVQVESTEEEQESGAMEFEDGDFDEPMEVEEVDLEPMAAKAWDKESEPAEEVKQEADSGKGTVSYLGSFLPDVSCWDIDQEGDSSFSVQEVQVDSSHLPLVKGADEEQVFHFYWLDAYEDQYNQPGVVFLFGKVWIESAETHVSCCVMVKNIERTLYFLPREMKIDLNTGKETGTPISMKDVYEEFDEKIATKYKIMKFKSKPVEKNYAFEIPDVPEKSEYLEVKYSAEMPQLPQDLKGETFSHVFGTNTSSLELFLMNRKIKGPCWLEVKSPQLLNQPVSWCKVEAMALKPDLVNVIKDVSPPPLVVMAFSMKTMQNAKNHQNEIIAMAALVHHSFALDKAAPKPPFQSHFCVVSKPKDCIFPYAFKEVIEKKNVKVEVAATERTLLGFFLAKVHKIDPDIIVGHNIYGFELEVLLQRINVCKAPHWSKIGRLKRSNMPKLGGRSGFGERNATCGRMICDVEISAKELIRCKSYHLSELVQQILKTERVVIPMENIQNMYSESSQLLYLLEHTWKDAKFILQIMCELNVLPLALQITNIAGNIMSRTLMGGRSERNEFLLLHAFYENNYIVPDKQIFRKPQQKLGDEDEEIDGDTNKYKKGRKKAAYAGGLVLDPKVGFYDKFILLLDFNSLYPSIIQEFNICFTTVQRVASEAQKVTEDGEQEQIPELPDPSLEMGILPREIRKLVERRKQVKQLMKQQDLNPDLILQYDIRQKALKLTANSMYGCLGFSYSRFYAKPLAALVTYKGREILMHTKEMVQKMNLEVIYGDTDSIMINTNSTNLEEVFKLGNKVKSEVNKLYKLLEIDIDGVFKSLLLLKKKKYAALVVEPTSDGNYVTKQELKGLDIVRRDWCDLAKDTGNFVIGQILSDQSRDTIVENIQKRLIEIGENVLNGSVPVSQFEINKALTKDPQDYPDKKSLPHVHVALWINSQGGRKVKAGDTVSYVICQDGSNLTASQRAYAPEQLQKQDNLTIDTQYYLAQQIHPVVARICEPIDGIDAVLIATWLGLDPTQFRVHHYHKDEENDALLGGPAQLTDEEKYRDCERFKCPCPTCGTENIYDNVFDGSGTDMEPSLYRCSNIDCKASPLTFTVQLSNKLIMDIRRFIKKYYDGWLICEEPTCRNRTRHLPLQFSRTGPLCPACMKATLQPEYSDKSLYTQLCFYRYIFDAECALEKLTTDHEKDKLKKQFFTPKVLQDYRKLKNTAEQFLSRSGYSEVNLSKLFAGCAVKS", "sequence (Q14181 whole entry, chain 2 of 4)": "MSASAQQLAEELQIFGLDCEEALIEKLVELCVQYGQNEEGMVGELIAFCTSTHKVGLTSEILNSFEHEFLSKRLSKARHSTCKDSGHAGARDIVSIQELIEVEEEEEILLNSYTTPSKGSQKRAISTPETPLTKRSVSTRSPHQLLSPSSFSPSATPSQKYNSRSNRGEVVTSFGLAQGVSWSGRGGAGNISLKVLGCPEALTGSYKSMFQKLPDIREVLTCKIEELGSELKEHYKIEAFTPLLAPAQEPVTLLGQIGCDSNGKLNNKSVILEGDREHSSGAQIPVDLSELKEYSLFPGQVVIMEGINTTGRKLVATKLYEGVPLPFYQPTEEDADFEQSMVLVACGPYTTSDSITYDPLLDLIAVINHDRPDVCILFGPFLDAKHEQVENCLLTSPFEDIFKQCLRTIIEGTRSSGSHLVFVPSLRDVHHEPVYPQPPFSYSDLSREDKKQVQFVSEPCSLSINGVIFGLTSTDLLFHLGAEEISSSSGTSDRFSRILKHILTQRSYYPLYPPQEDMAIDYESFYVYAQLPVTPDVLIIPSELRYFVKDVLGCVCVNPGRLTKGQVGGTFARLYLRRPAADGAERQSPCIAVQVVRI", "sequence (P49642 whole entry, chain 3 of 4)": "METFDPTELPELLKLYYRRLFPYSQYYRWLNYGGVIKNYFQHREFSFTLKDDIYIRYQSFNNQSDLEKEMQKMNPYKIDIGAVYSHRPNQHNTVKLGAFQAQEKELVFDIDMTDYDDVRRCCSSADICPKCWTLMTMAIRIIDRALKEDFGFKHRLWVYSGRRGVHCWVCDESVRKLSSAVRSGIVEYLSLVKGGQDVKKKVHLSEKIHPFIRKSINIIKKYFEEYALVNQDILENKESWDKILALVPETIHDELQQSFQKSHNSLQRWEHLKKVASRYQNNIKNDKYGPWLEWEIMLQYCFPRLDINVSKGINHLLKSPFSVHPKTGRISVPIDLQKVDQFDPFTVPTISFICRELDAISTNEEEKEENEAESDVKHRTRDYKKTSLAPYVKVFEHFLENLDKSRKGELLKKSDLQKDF", "sequence (P49643 whole entry, chain 4 of 4)": "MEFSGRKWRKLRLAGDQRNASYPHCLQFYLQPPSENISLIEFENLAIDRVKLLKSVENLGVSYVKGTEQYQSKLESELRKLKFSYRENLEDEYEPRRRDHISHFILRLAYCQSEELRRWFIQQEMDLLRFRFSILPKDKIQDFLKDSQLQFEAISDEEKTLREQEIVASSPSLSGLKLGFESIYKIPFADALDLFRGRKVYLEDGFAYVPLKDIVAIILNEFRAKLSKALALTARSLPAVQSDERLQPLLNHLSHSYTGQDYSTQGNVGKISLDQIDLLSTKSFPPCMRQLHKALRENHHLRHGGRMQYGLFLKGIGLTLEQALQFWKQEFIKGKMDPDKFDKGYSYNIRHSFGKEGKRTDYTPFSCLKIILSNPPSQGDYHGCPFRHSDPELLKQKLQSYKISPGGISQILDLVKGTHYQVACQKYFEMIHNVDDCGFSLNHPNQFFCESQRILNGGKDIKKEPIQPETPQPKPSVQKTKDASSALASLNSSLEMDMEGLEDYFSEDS", "assay": "EMSA; Kd,app similar to CST-Polα-primase, value only in figure; complex dissociates during electrophoresis; CST EMSA: 20 mM HEPES-NaOH pH 8.0, 150 mM NaCl, 2 mM MgCl2, 0.2 mM EGTA, 0.1% NP-40, 10% glycerol, 1 mM DTT, 2 h on ice, 0.7% agarose 1x TBE gel at 4 °C; POT1-TPP1N EMSA: C-strand synthesis buffer, 30 min at 30 °C", "details": "protein: recombinant; copies: 1;1;1;1; label: 5'-32P; folds into G-quadruplex in KCl and NaCl, not LiCl"}
{"binder": "9xTEL (ssDNA) DNA: TTAGGGTTAGGGTTAGGGTTAGGGTTAGGGTTAGGGTTAGGGTTAGGGTTAGGG", "values": [{"measurement": "binding result", "value": "binds"}]}
